Measured values taken from the MegaScale stability set (Tsuboyama et al. 2023).

B1: r16_88_TrROS_Hall (parent)
chain: EVIELKIKFKTPEQREKLKEIAKKLNAEVVEEKDGEVIIRFKTPEQAERALKEAEKLGAEVEL

Variants of: B1
Assay: folding stability dG (cDNA display proteolysis); higher = more stable
Details: PBS, room temperature

Folding stability dG [kcal/mol] of substitutions, site by site:
T43: C 4.63 | I 4.48 | P 3.06 | Q 4.3 | M 4.56 | E 3.61 | R 4.06 | W 4.29 | K 4.36 | V 4.27 | A 4.45 | Y 4.43 | D 3.85 | N 3.86 | H 4.57 | S 4.53 | F 4.41 | L 4.67 | G 4.08
K42: Y 4.36 | P 3.79 | V 4.19 | M 4.18 | A 4.1 | W 4.26 | F 4.33 | L 4.13 | G 4.03 | D 4.01 | S 4.23 | I 4.37 | C 4.29 | H 4.1 | N 4.18 | T 4.13 | R 4.62 | Q 3.95 | E 3.81
G35: P 3.8 | F 4.24 | Y 4.18 | C 4.48 | L 4.32 | D 4.1 | R 4.42 | H 4.16 | I 4.51 | V 4.35 | A 4.5 | N 4.33 | T 4.36 | E 4.14 | K 4.24 | Q 4.25 | S 4.48 | M 4.26 | W 4.46
E28: G 4.33 | H 4.43 | I 4.45 | S 4.1 | L 4.24 | F 4.17 | T 4.4 | K 4.17 | N 4.17 | V 4.41 | A 4.29 | Q 4.51 | Y 4.36 | C 4.65 | R 4.37 | P 4.34 | D 4.26 | W 4.53 | M 4.17
D34: N 4.3 | W 4.32 | M 4.5 | V 4.4 | I 4.5 | K 4.19 | C 4.42 | A 4.32 | G 4.46 | H 4.52 | P 4.26 | E 4.44 | S 4.25 | F 4.34 | Q 4.35 | R 4.23 | T 4.49 | L 4.3 | Y 4.29
E32: R 4.3 | G 4.46 | Q 4.62 | M 4.33 | S 4.48 | N 4.43 | I 4.39 | P 4.54 | K 4.45 | V 4.54 | Y 4.65 | C 4.53 | D 4.39 | A 4.34 | T 4.52 | W 4.34 | H 4.49 | L 4.31 | F 4.57
K33: F 4.42 | M 4.39 | T 4.35 | A 4.37 | W 4.45 | S 4.17 | Q 4.49 | H 4.45 | P 4.27 | R 4.43 | G 4.36 | Y 4.31 | L 4.59 | N 4.32 | D 4.26 | V 4.35 | I 4.27 | E 3.99 | C 4.42
V29: N 4.62 | Q 4.76 | W 4.3 | Y 4.55 | I 4.3 | D 4.14 | G 4.47 | C 4.49 | F 4.23 | E 4.47 | M 4.4 | L 4.2 | R 4.57 | K 4.39 | T 4.21 | P 4.1 | H 4.53 | A 4.3 | S 4.32
V30: P 4.07 | W 4.39 | N 4.52 | K 4.48 | L 4.44 | I 4.46 | F 4.61 | G 4.26 | T 4.39 | R 4.42 | M 4.49 | D 4.27 | C 4.38 | H 4.35 | S 4.51 | A 4.58 | Y 4.42 | E 4.59 | Q 4.3
E36: C 4.39 | K 4.65 | M 4.48 | Q 4.67 | H 4.68 | T 4.59 | N 4.24 | D 4.49 | L 4.61 | P 4.07 | A 4.59 | V 4.36 | G 4.39 | F 4.66 | Y 4.89 | I 4.32 | W 4.7 | R 4.62 | S 4.26
I39: G 3.23 | N 2.82 | S 3.19 | V 4.44 | L 4.67 | M 4.65 | A 4.41 | F 4.92 | D 0.533 | R 0.96 | H 3.68 | T 3.95 | Y 5 | E 2.69 | Q 3.99 | K 1.68 | C 4.35 | P 0.941
N26: M 4.53 | T 4.41 | Y 4.31 | W 4.36 | P 3.84 | L 4.16 | R 4.42 | Q 4.45 | V 4.35 | S 4.45
R40: T 4.79 | G 4.15 | V 4.64 | E 3.93 | C 4.37 | A 4.3 | M 4.64 | N 4.13 | K 4.27 | D 3.83 | F 4.66 | H 4.04 | I 4.47 | L 4.5 | P 2.96 | W 4.77 | Q 4.07 | S 4.38 | Y 4.86
A27: D 3.12 | N 3.76 | T 4.26 | C 4.25 | K 3.95 | V 4.24 | F 4.4 | Q 3.88 | M 4.42 | I 4.34 | H 4.04 | S 4.31 | W 4.42 | P 4.01 | R 3.72 | Y 4.25 | E 3.84 | G 4.37 | L 4.45
F41: C 4.28 | P 3.46 | Q 2.23 | E 0.961 | D 0.465 | T 3.73 | G 3.01 | H 3.13 | L 4.01 | Y 4.23 | W 4 | R 1.04 | S 4.03 | V 4.09 | A 4.49 | M 4.14 | K 0.67 | N 3.33 | I 4.16
P44: C 4.66 | A 4.58
E31: S 4.6 | L 4.62 | R 4.35 | Q 4.57 | A 4.29 | T 4.35 | C 4.51 | H 4.63 | W 4.68 | K 4.34 | I 4.45 | Y 4.46 | G 4.41 | P 4.06 | V 4.37 | F 4.61 | D 4.45 | M 4.37 | N 4.49
V37: P 2.49 | Y 4.14 | A 4.08 | Q 4.07 | C 4.19 | G 3.63 | D 3.02 | W 4.36 | R 3.03 | L 4.39 | M 4.33 | I 4.39 | E 3.36 | K 3.31 | T 4.32 | N 3.52 | F 4.55 | S 4.19 | H 4.38
I38: S 4.26 | Q 4.33 | Y 4.76 | M 4.51 | E 3.67 | T 4.44 | F 4.96 | C 4.3 | G 3.78 | W 4.96 | H 4.63 | V 4.44 | A 4.26 | L 4.25 | R 4.28 | K 3.82 | D 3.82 | P 1.19 | N 4.24
